Results reported in PMC9120461, “Structural insights into the mechanism of pancreatic KATP channel regulation by nucleotides” (Nature Communications, 2022).

Columns and labels:
[1] = target: T1, SUR1 from Mesocricetus auratus (maSUR1), as the SUR1 part of H175K_(cryo-EM) (Mesocricetus auratus, UniProt A0A1U7R319 1-1582); assay: cryo-EM structure; purified H175K_(cryo-EM) fusion protein (13.5 uM octamer) in TBS (20 mM Tris-HCl pH 7.5, 150 mM NaCl) with 0.1% digitonin, with 5 mM MgCl2, 0.5 mM ADP, 0.5 mM NN414 and 10 uM PI(4,5)P2diC8; closed and pre-open states resolved in the same sample; conditions: both partners purified
T1 construct: SUR1 from Mesocricetus auratus (maSUR1); In the assay it stood on one chain with Kir6.2 H175K: its C terminus is joined to the 41-residue linker and the Prescission site; also called SUR1 subunit; source: purified in digitonin (Streptactin 4FF resin, Superose 6 increase)

[2] = target: the molecule itself; assay: as above

T1 sequence (A0A1U7R319 entry or part of it H175K H175K): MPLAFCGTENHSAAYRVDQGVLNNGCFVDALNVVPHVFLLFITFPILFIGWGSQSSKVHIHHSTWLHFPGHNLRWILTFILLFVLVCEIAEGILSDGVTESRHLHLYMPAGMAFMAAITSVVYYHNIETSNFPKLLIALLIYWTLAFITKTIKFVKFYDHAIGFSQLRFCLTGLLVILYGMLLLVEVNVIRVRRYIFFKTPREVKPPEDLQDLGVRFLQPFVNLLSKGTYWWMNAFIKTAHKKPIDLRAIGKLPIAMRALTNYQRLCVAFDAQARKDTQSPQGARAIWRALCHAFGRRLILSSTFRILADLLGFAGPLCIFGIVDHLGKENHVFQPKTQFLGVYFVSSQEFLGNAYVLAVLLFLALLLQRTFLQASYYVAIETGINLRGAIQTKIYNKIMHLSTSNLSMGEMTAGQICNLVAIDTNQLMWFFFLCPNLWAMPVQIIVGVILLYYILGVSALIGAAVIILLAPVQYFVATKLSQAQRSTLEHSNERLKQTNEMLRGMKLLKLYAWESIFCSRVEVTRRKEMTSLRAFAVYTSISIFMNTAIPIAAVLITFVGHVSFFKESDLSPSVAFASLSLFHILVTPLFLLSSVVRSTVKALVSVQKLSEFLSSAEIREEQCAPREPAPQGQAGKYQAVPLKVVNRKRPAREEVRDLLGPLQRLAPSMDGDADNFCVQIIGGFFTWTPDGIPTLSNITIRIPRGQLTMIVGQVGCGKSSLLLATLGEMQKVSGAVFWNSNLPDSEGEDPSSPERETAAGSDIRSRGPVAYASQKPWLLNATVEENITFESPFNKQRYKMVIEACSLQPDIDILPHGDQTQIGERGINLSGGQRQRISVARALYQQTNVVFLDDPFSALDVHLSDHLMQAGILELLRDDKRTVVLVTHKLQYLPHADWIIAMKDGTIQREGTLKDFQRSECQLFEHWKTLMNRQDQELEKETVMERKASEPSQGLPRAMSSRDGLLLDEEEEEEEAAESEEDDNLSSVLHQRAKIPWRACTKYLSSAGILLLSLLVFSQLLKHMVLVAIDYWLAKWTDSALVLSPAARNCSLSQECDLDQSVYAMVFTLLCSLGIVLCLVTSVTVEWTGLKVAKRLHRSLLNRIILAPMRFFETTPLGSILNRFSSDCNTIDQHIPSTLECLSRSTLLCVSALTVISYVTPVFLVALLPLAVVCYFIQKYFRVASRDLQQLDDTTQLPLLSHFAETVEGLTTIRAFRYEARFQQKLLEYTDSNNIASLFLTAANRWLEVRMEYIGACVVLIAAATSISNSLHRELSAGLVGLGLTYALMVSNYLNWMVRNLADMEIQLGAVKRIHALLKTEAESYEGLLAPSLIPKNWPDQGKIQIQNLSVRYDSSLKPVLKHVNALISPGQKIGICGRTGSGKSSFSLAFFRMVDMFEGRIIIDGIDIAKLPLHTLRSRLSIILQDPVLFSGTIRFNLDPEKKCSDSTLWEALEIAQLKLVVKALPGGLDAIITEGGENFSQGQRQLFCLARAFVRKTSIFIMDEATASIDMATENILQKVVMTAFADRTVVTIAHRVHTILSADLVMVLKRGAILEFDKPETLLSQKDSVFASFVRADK

binding result [1]: binds
B1: Kir6.2 from Mus musculus (mmKir6.2) H175K mutant, as the Kir6.2 part of H175K_(cryo-EM) (natural protein, UniProt Q61743 2-390, looked up)
chain: LSRKGIIPEEYVLTRLAEDPAEPRYRTRERRARFVSKKGNCNVAHKNIREQGRFLQDVFTTLVDLKWPHTLLIFTMSFLCSWLLFAMVWWLIAFAHGDLAPGEGTNVPCVTSIHSFSSAFLFSIEVQVTIGFGGRMVTEECPLAILILIVQNIVGLMINAIMLGCIFMKTAQAKRRAETLIFSKHAVITLRHGRLCFMLRVGDLRKSMIISATIHMQVVRKTTSPEGEVVPLHQVDIPMENGVGGNGIFLVAPLIIYHVIDSNSPLYDLAPSDLHHHQDLEIIVILEGVVETTGITTQARTSYLADEILWGQRFVPIVAEEDGRYSVDYSKFGNTIKVPTPLCTARQLDEDRSLLDALTLASSRGPLRKRSVAVAKAKPKFSISPDSLS
notes: Kir6.2 from Mus musculus (mmKir6.2), first Met removed, H175K mutant; In the assay it stood on one chain with SUR1: its N terminus is joined to the Prescission site and the 41-residue linker after SUR1; source: purified in digitonin (Streptactin 4FF resin, Superose 6 increase)
binding result [2]: binds
